Assay results taken from patent US20170044236A1 (GENERAL HOSPITAL, published 2017).
No end group written: not given here.

B1: hFN10/B (designed binder)
chain: SDVPRDLEVVAATPTSLLISWDAPAVTVRYYRITYGETGGNSPVQEFTVPGSKSTATISGLKPGVDYTITVYAVIARGDWNDGSKPISINY
notes: hFN10 with the three residues flanking RGDWN changed to match barbourin; His tag as for hFN10
B2: wild-type integrin αVβ3 on cells (K562-αVβ3, M21, HEK293T) (receptor)
chain 1: FNLDVDSPAEYSGPEGSYFGFAVDFFVPSASSRMFLLVGAPKANTTQPGIVEGGQVLKCDWSSTRRCQPIEFDATGNRDYAKDDPLEFKSHQWFGASVRSKQDKILACAPLYHWRTEMKQEREPVGTCFLQDGTKTVEYAPCRSQDIDADGQGFCQGGFSIDFTKADRVLLGGPGSFYWQGQLISDQVAEIVSKYDPNVYSIKYNNQLATRTAQAIFDDSYLGYSVAVGDFNGDGIDDFVSGVPRAARTLGMVYIYDGKNMSSLYNFTGEQMAAYFGFSVAATDINGDDYADVFIGAPLFMDRGSDGKLQEVGQVSVSLQRASGDFQTTKLNGFEVFARFGSAIAPLGDLDQDGFNDIAIAAPYGGEDKKGIVYIFNGRSTGLNAVPSQILEGQWAARSMPPSFGYSMKGATDIDKNGYPDLIVGAFGVDRAILYRARPVITVNAGLEVYPSILNQDNKTCSLPGTALKVSCFNVRFCLKADGKGVLPRKLNFQVELLLDKLKQKGAIRRALFLYSRSPSHSKNMTISRGGLMQCEELIAYLRDESEFRDKLTPITIFMEYRLDYRTAADTTGLQPILNQFTPANISRQAHILLDCGEDNVCKPKLEVSVDSDQKKIYIGDDNPLTLIVKAQNQGEGAYEAELIVSIPLQADFIGVVRNNEALARLSCAFKTENQTRQVVCDLGNPMKAGTQLLAGLRFSVHQQSEMDTSVKFDLQIQSSNLFDKVSPVVSHKVDLAVLAAVEIRGVSSPDHIFLPIPNWEHKENPETEEDVGPVVQHIYELRNNGPSSFSKAMLHLQWPYKYNNNTLLYILHYDIDGPMNCTSDMEINPLRIKISSLQTTEKNDTVAGQGERDHLITKRDLALSEGDIHTLGCGVAQCLKIVCQVGRLDRGKSAILYVKSLLWTETFMNKENQNHSYSLKSSASFNVIEFPYKNLPIEDITNSTLVTTNVTWGIQPAPMPVPVWVIILAVLAGLLLLAVLVFVMYRMGFFKRVRPPQEEQEREQLQPHENGEGNSET
chain 2: GPNICTTRGVSSCQQCLAVSPMCAWCSDEALPLGSPRCDLKENLLKDNCAPESIEFPVSEARVLEDRPLSDKGSGDSSQVTQVSPQRIALRLRPDDSKNFSIQVRQVEDYPVDIYYLMDLSYSMKDDLWSIQNLGTKLATQMRKLTSNLRIGFGAFVDKPVSPYMYISPPEALENPCYDMKTTCLPMFGYKHVLTLTDQVTRFNEEVKKQSVSRNRDAPEGGFDAIMQATVCDEKIGWRNDASHLLVFTTDAKTHIALDGRLAGIVQPNDGQCHVGSDNHYSASTTMDYPSLGLMTEKLSQKNINLIFAVTENVVNLYQNYSELIPGTTVGVLSMDSSNVLQLIVDAYGKIRSKVELEVRDLPEELSLSFNATCLNNEVIPGLKSCMGLKIGDTVSFSIEAKVRGCPQEKEKSFTIKPVGFKDSLIVQVTFDCDCACQAQAEPNSHRCNNGNGTFECGVCRCGPGWLGSQCECSEEDYRPSQQDECSPREGQPVCSQRGECLCGQCVCHSSDFGKITGKYCECDDFSCVRYKGEMCSGHGQCSCGDCLCDSDWTGYYCNCTTRTDTCMSSNGLLCSGRGKCECGSCVCIQPGSYGDTCEKCPTCPDACTFKKECVECKKFDREPYMTENTCNRYCRDEIESVKELKDTGKDAVNCTYKNEDDCVVRFQYYEDSSGKSILYVVEEPECPKGPDILVVLLSVMGAILLIGLAALLIWKLLITIHDRKEFAKFEEERARAKWDTANNPLYKEATSTFTNITYRGT
notes: also called WT αVβ3; cellular αVβ3
B3: WT knottin 2.5F-Fc fusion protein (rEETI 2.5F) (Fc fusion)
chain: GCPRPRGDNPPLTCSQDSDCLAGCVCGPNGFCG
modifications: ends and bridges not checked; also: C-terminal His tag on knottin, fused at C-terminus to human IgG Fc, Fc fusion dimer
notes: The order of His tag and Fc is read from 'c-terminal his-tagged ... fused at the c-terminus to the Fc fragment'; also called WT 2.5F; WT rEETI 2.5F; not shown: C-terminal His tag of the knottin; Fc fragment of human IgG
B4: modified knottin 2.5F M1, Fc fusion (Fc fusion)
chain: GCPRPRGDWNPLTCSQDSDCLAGCVCGPNGFCG
modifications: ends and bridges not checked; also: C-terminal His tag, number of His and linker not given here, fused at C-terminus to Fc fragment of human IgG
notes: Made by site-directed mutagenesis of the WT rEETI 2.5F construct; tested as culture supernatant; not shown: C-terminal His tag of the knottin; Fc fragment of human IgG
B5: modified knottin 2.5F M, Fc fusion (Fc fusion)
chain: GCPRPRGDWNEGTCSQDSDCLAGCVCGPNGFCG
modifications: ends and bridges not checked; also: C-terminal His tag, number of His and linker not given here, fused at C-terminus to Fc fragment of human IgG
notes: as for B4

How the values were obtained:
[1] = target: B2; test: M21 cells, unlabeled FN10, AP5 read-out by flow cytometry
Method: (§1) K562-αVβ3 cells, transiently transfected HEK293T or αVβ3⁺ M21 cells (0.5×10⁶ in 100 μl WB) were incubated in the absence or presence of unlabeled soluble FN10 (5 μg) in Ca²⁺/Mg²⁺ or in Mn²⁺ (30 min; at 25° C.). Alexa647-labeled AP5 Fab (plus Alexa488-labeled AP3, when HEK293T cells were used), unlabeled anti-LIBS-1 (all to 10 μg/ml) or LIBS-6 ascites (to 1:50 dilution) were added, and the cells incubated for an additional 30 min before washing. APC-labeled goat anti-mouse Fc-specific antibody was added to anti-LIBS-1- or anti-LIBS-6-bound M21 cells, cells were incubated for an additional 30 min at 4° C. then washed, resuspended, fixed in 4% paraformaldehyde and analyzed by flow cytometry. LIBS epitope expression was measured and expressed as MFI (in case of K562-αVβ3 or M21 cells) and normalized (in case of HEK293T cells) by dividing its MFI by the MFI for Alexa488-labeled AP3, and multiplied by 100.

[2] = target: T1, wild-type 10th type-III RGD-domain of human fibronectin (wtFN10) (human, UniProt P02751 1539-1631); test: as above
T1 construct: Expressed in bacteria with an N-terminal His tag (S1417-T1509) and a thrombin cleavage site; also called wild-type FN10
Method: as §1

[3] = target: B2; test: flow cytometry on K562-αVβ3, culture supernatant, fluoresceinated anti-human Fc mAb, Ca2+/Mg2+
Method: (§2) Binding of soluble knottin dimers to αVβ3-K562 cells was expressed as mean fluorescence intensity (MFI), as determined using FlowJo software. […] Alexa647-labeled mAb AP5 Fab (10 μg/ml) was added, and cells incubated for an additional 30 min before washing. APC-labeled goat anti-mouse Fc-specific antibody was added to anti-LIBS-1- or anti-LIBS-6-bound M21 cells for an additional 30 min at 4° C. Cells were then washed, resuspended, fixed in 4% paraformaldehyde and analyzed by flow cytometry. AP5 epitope expression was measured and expressed as MFI.
as §2, with “Cells were washed, resuspended, fixed in 4% paraformaldehyde, and analyzed using FACSCalibur or BD-LSRII flow cytometers (BD Biosciences). Binding” for “Binding”, “Fe-specific” for “Fc-specific”

| Binder | binding result [3] | other results |
| --- | --- | --- |
| B1 |  | binding result [1]: binds |
| B2 |  | binding result [2]: binds |
| B3 | binds |  |
| B4 | binds |  |
| B5 | binds |  |
